The target of the first test is HLA-B*0702 (human). The test can be described thus: iTopia off-rate.
Consider EQRTKYRSL [cdr2 442-450 EQRTKYRSL], for which the t1/2 amounted to 1.59.
The same measure, in the same setting: the value for AVQTSRAAA [cdr2 378-386 AVQTSRAAA] was 0.9; that for RARALELEA [cdr2 244-252 RARALELEA] was 0.47.
Same read-out and setting: in the case of AVKQRGISL [cdr2 337-345 AVKQRGISL] it was 1.18; in that of TGAYRARAL [cdr2 240-248 TGAYRARAL], 0.22; in that of HLKKTVTML [cdr2 197-205 HLKKTVTML], 0.11.
In the case of AYRARALEL [cdr2 242-250 AYRARALEL], the t1/2 was found to be 0.15.

A further test concerns the target HLA-B*0702 (human). As to the kind of experiment: iTopia net score.
As for EQRTKYRSL [cdr2 442-450 EQRTKYRSL], the iScore was 0.031.
Same read-out and setting: in the case of AVQTSRAAA [cdr2 378-386 AVQTSRAAA] it was 0.153; in that of RARALELEA [cdr2 244-252 RARALELEA], 0.08; in that of AVKQRGISL [cdr2 337-345 AVKQRGISL], 0.293.
TGAYRARAL [cdr2 240-248 TGAYRARAL] showed an iScore of 0.082.
Still for that read-out and setting: the value for HLKKTVTML [cdr2 197-205 HLKKTVTML] was 0.022; that for AYRARALEL [cdr2 242-250 AYRARALEL] was 0.033.

The next test deals with HLA-A*0301 (human). As to the kind of experiment: iTopia affinity.
VYDHVFAEK [cdr2 172-180 VYDHVFAEK]: the ED50 turned out to be 25 µM.
On the same count and under the same terms, the value for TQYSALKVK [cdr2 351-359 TQYSALKVK] was 7.5 µM.

Another test has as its target T1, HLA-A*1501 (human).
T1 construct: possibly meant as HLA-B*1501
As to the kind of experiment: iTopia net score.
SQSLLEEMF [cdr2 287-295 SQSLLEEMF] showed an iScore of 0.062.
Still for that read-out and setting: the value for LLHEVDTQY [cdr2 345-353 LLHEVDTQY] was 0.121.
Still for that read-out and setting: in the case of KQRGISLLH [cdr2 339-347 KQRGISLLH] it was 0.163; in that of AVQTSRAAA [cdr2 378-386 AVQTSRAAA], 0.062; in that of RARALELEA [cdr2 244-252 RARALELEA], 0.118.
The same measure, in the same setting: in the case of AVKQRGISL [cdr2 337-345 AVKQRGISL] it was 0.16; in that of ASQQKILSL [cdr2 107-113 ASQQKILSL], 0.092.
The molecule TQYSALKVK [cdr2 351-359 TQYSALKVK] displayed an iScore of 0.181.

The target in a further test is T2, HLA-A*0201 (human).
T2 construct: also called HLA-A2.1; HLA A2.1
As to the kind of experiment: iTopia net score.
LLHEVDTQY [cdr2 345-353 LLHEVDTQY] came in with an iScore of 0.204.
The same measure, in the same setting: the value for ASQQKILSL [cdr2 107-113 ASQQKILSL] was 0.174.
Still for that read-out and setting: the value for HLKKTVTML [cdr2 197-205 HLKKTVTML] was 0.199.

The target of another test is HLA-A*1101 (human). The test can be described thus: iTopia off-rate.
Regarding KQRGISLLH [cdr2 339-347 KQRGISLLH], the t1/2 was found to be 0.44.
VYDHVFAEK [cdr2 172-180 VYDHVFAEK] displayed a t1/2 of 0.7.
Still for that read-out and setting: in the case of ASQQKILSL [cdr2 107-113 ASQQKILSL] it was 2.45; in that of TQYSALKVK [cdr2 351-359 TQYSALKVK], 0.76.

In a further test the target is HLA-A*2402 (human). The test can be described thus: iTopia net score.
In turn, SQSLLEEMF [cdr2 287-295 SQSLLEEMF] gave an iScore of 0.048.
The same measure, in the same setting: the value for KQRGISLLH [cdr2 339-347 KQRGISLLH] was 0.184; that for VYDHVFAEK [cdr2 172-180 VYDHVFAEK] was 0.165; that for AVKQRGISL [cdr2 337-345 AVKQRGISL] was 0.13.
Still for that read-out and setting: the value for HLKKTVTML [cdr2 197-205 HLKKTVTML] was 0.075; that for AYRARALEL [cdr2 242-250 AYRARALEL] was 0.611.

The next test has as its target HLA-B*0801 (human). As to the kind of experiment: iTopia affinity.
EQRTKYRSL [cdr2 442-450 EQRTKYRSL]: the ED50 came out at 15 µM.
On the same count and under the same terms, the value for AVKQRGISL [cdr2 337-345 AVKQRGISL] was 22 µM; that for TGAYRARAL [cdr2 240-248 TGAYRARAL] was 18 µM.
Same read-out and setting: the value for HLKKTVTML [cdr2 197-205 HLKKTVTML] was 37 µM; that for AYRARALEL [cdr2 242-250 AYRARALEL] was 26 µM.

In a further test the target is HLA-A*1101 (human). The test can be described thus: iTopia net score.
In the case of KQRGISLLH [cdr2 339-347 KQRGISLLH], the iScore is 0.089.
On the same count and under the same terms, in the case of VYDHVFAEK [cdr2 172-180 VYDHVFAEK] it was 0.146.
Same read-out and setting: in the case of ASQQKILSL [cdr2 107-113 ASQQKILSL] it was 0.19; in that of TQYSALKVK [cdr2 351-359 TQYSALKVK], 0.276.

In a further test the target is T2, HLA-A*0201. As to the kind of experiment: iTopia off-rate.
LLHEVDTQY [cdr2 345-353 LLHEVDTQY] gave a t1/2 of 3.5.
The same measure, in the same setting: in the case of ASQQKILSL [cdr2 107-113 ASQQKILSL] it was 3.4.
Still for that read-out and setting: in the case of HLKKTVTML [cdr2 197-205 HLKKTVTML] it was 2.5.

A further test has as its target HLA-B*0702 (human). As to the kind of experiment: iTopia affinity.
On to EQRTKYRSL [cdr2 442-450 EQRTKYRSL], for which the ED50 stood at 100 µM.
AVQTSRAAA [cdr2 378-386 AVQTSRAAA] yielded an ED50 of 11 µM.
On the same count and under the same terms, the value for RARALELEA [cdr2 244-252 RARALELEA] was 14 µM.
The same measure, in the same setting: the value for AVKQRGISL [cdr2 337-345 AVKQRGISL] was 2.4 µM; that for TGAYRARAL [cdr2 240-248 TGAYRARAL] was 5.7 µM.
Same read-out and setting: the value for HLKKTVTML [cdr2 197-205 HLKKTVTML] was 99 µM.
Molecule AYRARALEL [cdr2 242-250 AYRARALEL] gave an ED50 of 23 µM.

For another test, the target named is T2, HLA-A*0201. The test can be described thus: iTopia binding.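 Further: each peptide tested for binding to HLA-A2 molecules immobilized on plates, using a commercial screening kit run per its supplied protocol and reagents.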
Consider LLHEVDTQY [cdr2 345-353 LLHEVDTQY], for which the “binding vs positive control” value is above 30%.
Regarding ASQQKILSL [cdr2 107-113 ASQQKILSL], the “binding vs positive control” value was above 30%.
As for HLKKTVTML [cdr2 197-205 HLKKTVTML], the “binding vs positive control” value was above 30%.

In a further test the target is T2, HLA-A*0201. As to the kind of experiment: iTopia affinity.
LLHEVDTQY [cdr2 345-353 LLHEVDTQY] returned an ED50 of 7 µM.
Same read-out and setting: the value for ASQQKILSL [cdr2 107-113 ASQQKILSL] was 8 µM.
The same measure, in the same setting: the value for HLKKTVTML [cdr2 197-205 HLKKTVTML] was 10 µM.

Another test concerns the target HLA-A*2402 (human). The test can be described thus: iTopia off-rate.
On to SQSLLEEMF [cdr2 287-295 SQSLLEEMF], for which the t1/2 was found to be 0.24.
On the same count and under the same terms, the value for KQRGISLLH [cdr2 339-347 KQRGISLLH] was 1.52; that for VYDHVFAEK [cdr2 172-180 VYDHVFAEK] was 1.65; that for AVKQRGISL [cdr2 337-345 AVKQRGISL] was 1.6.
Still for that read-out and setting: in the case of HLKKTVTML [cdr2 197-205 HLKKTVTML] it was 0.8; in that of AYRARALEL [cdr2 242-250 AYRARALEL], 1.11.

The next test deals with HLA-A*2402 (human). As to the kind of experiment: iTopia affinity.
For the molecule SQSLLEEMF [cdr2 287-295 SQSLLEEMF], the ED50 was 14 µM.
Still for that read-out and setting: in the case of KQRGISLLH [cdr2 339-347 KQRGISLLH] it was 6.9 µM.
Still for that read-out and setting: the value for VYDHVFAEK [cdr2 172-180 VYDHVFAEK] was 6.2 µM; that for AVKQRGISL [cdr2 337-345 AVKQRGISL] was 20 µM.
Still for that read-out and setting: in the case of HLKKTVTML [cdr2 197-205 HLKKTVTML] it was 89 µM; in that of AYRARALEL [cdr2 242-250 AYRARALEL], 0.16 µM.

In the next test the target is HLA-A*0301 (human). The test can be described thus: iTopia net score.
VYDHVFAEK [cdr2 172-180 VYDHVFAEK] displayed an iScore of 0.048.
On the same count and under the same terms, in the case of TQYSALKVK [cdr2 351-359 TQYSALKVK] it was 0.27.

The target of the next test is HLA-B*0801 (human). The test can be described thus: iTopia net score.
For the molecule EQRTKYRSL [cdr2 442-450 EQRTKYRSL], the iScore came to 0.16.
The same measure, in the same setting: the value for AVKQRGISL [cdr2 337-345 AVKQRGISL] was 0.139.
On the same count and under the same terms, the value for TGAYRARAL [cdr2 240-248 TGAYRARAL] was 0.085.
Still for that read-out and setting: the value for HLKKTVTML [cdr2 197-205 HLKKTVTML] was 0.123; that for AYRARALEL [cdr2 242-250 AYRARALEL] was 0.066.

The target in the next test is T1, HLA-A*1501. As to the kind of experiment: iTopia affinity.
For SQSLLEEMF [cdr2 287-295 SQSLLEEMF], the ED50 stood at 29 µM.
The same measure, in the same setting: the value for LLHEVDTQY [cdr2 345-353 LLHEVDTQY] was 39 µM; that for KQRGISLLH [cdr2 339-347 KQRGISLLH] was 22 µM.
Same read-out and setting: in the case of AVQTSRAAA [cdr2 378-386 AVQTSRAAA] it was 51 µM.
The same measure, in the same setting: in the case of RARALELEA [cdr2 244-252 RARALELEA] it was 48 µM.
With AVKQRGISL [cdr2 337-345 AVKQRGISL], the ED50 was found to be 15 µM.
In turn, ASQQKILSL [cdr2 107-113 ASQQKILSL] had an ED50 of 24 µM.
As to TQYSALKVK [cdr2 351-359 TQYSALKVK], the ED50 was 7.6 µM.

Another test addresses HLA-A*1101 (human). The test can be described thus: iTopia affinity.
With KQRGISLLH [cdr2 339-347 KQRGISLLH], the ED50 came out at 22 µM.
The same measure, in the same setting: in the case of VYDHVFAEK [cdr2 172-180 VYDHVFAEK] it was 8.8 µM; in that of ASQQKILSL [cdr2 107-113 ASQQKILSL], 20 µM.
Still for that read-out and setting: in the case of TQYSALKVK [cdr2 351-359 TQYSALKVK] it was 2.8 µM.

Another test concerns the target HLA-A*0301 (human). The test can be described thus: iTopia off-rate.
In turn, VYDHVFAEK [cdr2 172-180 VYDHVFAEK] showed a t1/2 of 0.36.
On to TQYSALKVK [cdr2 351-359 TQYSALKVK], for which the t1/2 came to 1.48.

(Values after patent US20090208538A1 (ROCKEFELLER UNIVERSITY, published 2009).)
